According to PMC9629720, “Lipids mediate supramolecular outer membrane protein assembly in bacteria” (Science Advances, 2022):
Values belong to the molecule of their own block, whether it stands above or below them.

Assays:
[1] = biological target: OmpF (endogenous, co-extracted with FepA^BPA) (E. coli (endogenous in BW25113)) (UniProt P02931); assay: native MS; FepA^BPA preparations with co-extracted porins, 5 μM in 1% β-OG, 0.2 M ammonium acetate pH 6.9; make-up of the porin trimers
[2] = biological target: OmpF V177^BPA cross-linked to LPS (anion exchange peak 2) (E. coli) (UniProt P02931); assay: native MS; purified OmpF samples, 5 μM in 1% β-OG, 0.2 M ammonium acetate pH 6.9; the OmpF trimer itself
[3] = biological target: OmpF V177^BPA cross-linked to phospholipid (anion exchange peak 1) (E. coli) (UniProt P02931); assay: as above
[4] = biological target: OmpF, wild type, purified (E. coli) (UniProt P02931); assay: as above
[5] = biological target: the molecule itself; assay: native MS; FepA^BPA preparations with co-extracted porins, 5 μM in 1% β-OG, 0.2 M ammonium acetate pH 6.9; make-up of the porin trimers
[6] = biological target: T1, OmpF (endogenous, co-extracted with FepA^BPA) (E. coli (endogenous in BW25113), UniProt P02931 23-362); assay: as above; details: partners not purified
T1 construct: OmpF, 16-stranded β barrel porin of E. coli; Found as homotrimers and as heterotrimers with OmpC; also called OmpF/C; porins; source: endogenous, outer membrane of E. coli BW25113 ΔfepA
T1 sequence (looked up): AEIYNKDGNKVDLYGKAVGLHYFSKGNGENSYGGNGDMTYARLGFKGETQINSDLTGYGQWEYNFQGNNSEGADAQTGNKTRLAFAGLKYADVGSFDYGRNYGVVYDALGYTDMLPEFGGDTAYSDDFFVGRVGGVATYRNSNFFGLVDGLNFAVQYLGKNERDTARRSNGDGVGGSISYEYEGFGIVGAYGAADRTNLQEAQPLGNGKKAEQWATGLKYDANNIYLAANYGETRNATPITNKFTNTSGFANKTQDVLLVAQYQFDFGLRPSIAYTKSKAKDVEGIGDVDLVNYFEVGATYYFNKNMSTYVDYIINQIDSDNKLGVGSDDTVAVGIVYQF

Molecule: OmpF (endogenous, co-extracted with FepA^BPA) (from UniProt P02931 23-362) (natural protein)
stoichiometry N [1]: 3

Molecule: OmpF V177^BPA cross-linked to phospholipid (anion exchange peak 1) (from UniProt P02931 23-362) (natural protein)
stoichiometry N [3]: 3

B1: OmpC (endogenous, co-extracted with FepA^BPA) (natural protein, E. coli (endogenous in BW25113), UniProt P06996 22-367, looked up)
chain: AEVYNKDGNKLDLYGKVDGLHYFSDNKDVDGDQTYMRLGFKGETQVTDQLTGYGQWEYQIQGNSAENENNSWTRVAFAGLKFQDVGSFDYGRNYGVVYDVTSWTDVLPEFGGDTYGSDNFMQQRGNGFATYRNTDFFGLVDGLNFAVQYQGKNGNPSGEGFTSGVTNNGRDALRQNGDGVGGSITYDYEGFGIGGAISSSKRTDAQNTAAYIGNGDRAETYTGGLKYDANNIYLAAQYTQTYNATRVGSLGWANKAQNFEAVAQYQFDFGLRPSLAYLQSKGKNLGRGYDDEDILKYVDVGATYYFNKNMSTYVDYKINLLDDNQFTRDAGINTDNIVALGLVYQF
notes: OmpC, porin, structural homolog of OmpF, E. coli; Found as homotrimers and as heterotrimers with OmpF; also called OmpF/C; porins; source: endogenous, outer membrane of E. coli BW25113 ΔfepA
stoichiometry N [5]: 3
stoichiometry N [6]: 3

The next lines start with the values.

stoichiometry N [2]: 3
Molecule: OmpF V177^BPA cross-linked to LPS (anion exchange peak 2) (from UniProt P02931 23-362) (natural protein)

stoichiometry N [4]: 3
Molecule: OmpF, wild type, purified (from UniProt P02931 23-362) (natural protein)
